{"source": "patent US20020037506", "about": "“Aptamer based two-site binding assay” (published 2002)", "binders": {"B1": {"name": "DT-5'-LNK-F (ssDNA)", "DNA": "TTTTTGCTTAGTCCGTGGTAGGGCAGGTTGGGGTGACTAAGC"}, "B2": {"name": "MC-DIMR-F (ssDNA)", "DNA": "GTAGTCACTGGTTGGTGAGGTTGGGTGACTACTTTTTTCATCAGTGGGTTGGAGTGGTTGGTCACTGATG", "modifications": "dimer; second half is the MC sequence in reverse order, structure drawn as image only"}, "B3": {"name": "MC-5'-LNK-F (ssDNA)", "DNA": "TTTTTTGTAGTCACTGGTTGGTGAGGTTGGGTGACTAC"}}, "key": {"alpha-thrombin [1]": {"target": "T1, alpha-thrombin (Homo sapiens, UniProt P00734;P00734 P00734:328-363,P00734:364-622)", "experiment": "flow; reporter with MC-beads, 30 nM thrombin, 37 C; values in figure only"}, "alpha-thrombin [2]": {"target": "T1, alpha-thrombin", "experiment": "detector in two-step sandwich on nylon membrane with immobilized DT-aptamer, room temperature, 100 uM heparin"}, "alpha-thrombin [3]": {"target": "T1, alpha-thrombin", "experiment": "flow; reporter with DT-beads (FIG. 2 legend cites SEQ 12 but Table 1 gives SEQ 7); 50 mM Tris pH 7.5, 100 mM NaCl, 2 mM MgCl2, 37 C"}}, "data": [{"binder": "B1", "values": [{"measurement": "binding result", "setting": "alpha-thrombin [1]", "result": "binds"}]}, {"binder": "B2", "values": [{"measurement": "binding result", "setting": "alpha-thrombin [2]", "result": "binds"}]}, {"binder": "B3", "values": [{"measurement": "binding result", "setting": "alpha-thrombin [3]", "result": "binds"}]}]}
